Consider one molecule from article PMC3285272 (Cell, 2012).

The experiment has as its target T1, full-length γζ-COP dimer (B. taurus, UniProt P53620 1-874; P35604 1-177).
T1 sequence (looked up) 1: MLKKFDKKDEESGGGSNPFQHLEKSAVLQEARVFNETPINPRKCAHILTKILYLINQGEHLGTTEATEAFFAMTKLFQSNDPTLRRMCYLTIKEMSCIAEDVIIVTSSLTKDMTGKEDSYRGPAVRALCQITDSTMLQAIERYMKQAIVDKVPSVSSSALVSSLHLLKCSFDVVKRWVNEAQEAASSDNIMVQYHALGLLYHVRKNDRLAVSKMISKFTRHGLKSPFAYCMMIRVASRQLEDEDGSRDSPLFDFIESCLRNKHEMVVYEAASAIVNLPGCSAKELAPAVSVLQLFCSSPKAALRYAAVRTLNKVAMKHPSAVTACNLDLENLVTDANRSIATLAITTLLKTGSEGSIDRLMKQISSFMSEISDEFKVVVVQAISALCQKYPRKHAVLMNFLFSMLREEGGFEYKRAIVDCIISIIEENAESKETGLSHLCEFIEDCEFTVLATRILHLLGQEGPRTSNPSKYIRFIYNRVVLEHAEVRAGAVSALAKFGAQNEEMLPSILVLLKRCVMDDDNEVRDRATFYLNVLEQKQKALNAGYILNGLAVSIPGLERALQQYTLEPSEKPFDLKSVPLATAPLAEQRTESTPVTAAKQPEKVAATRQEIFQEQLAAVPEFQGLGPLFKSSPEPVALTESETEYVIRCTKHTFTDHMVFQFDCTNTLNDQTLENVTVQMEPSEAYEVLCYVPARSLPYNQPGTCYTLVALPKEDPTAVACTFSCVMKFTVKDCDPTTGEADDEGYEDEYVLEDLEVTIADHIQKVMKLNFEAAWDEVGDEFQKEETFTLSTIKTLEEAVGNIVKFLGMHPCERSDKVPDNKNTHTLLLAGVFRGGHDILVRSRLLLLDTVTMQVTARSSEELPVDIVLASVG
T1 sequence (looked up) 2: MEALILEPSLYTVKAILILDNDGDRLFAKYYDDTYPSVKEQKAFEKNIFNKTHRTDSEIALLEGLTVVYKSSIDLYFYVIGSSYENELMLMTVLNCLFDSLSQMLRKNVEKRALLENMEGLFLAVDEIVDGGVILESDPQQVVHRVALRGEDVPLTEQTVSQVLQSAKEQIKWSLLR
Put plainly: pull-down.

B1: S. cerevisiae Arf1 (residues 18–181) with a C-terminal GST tag (domain or fragment, UniProt P11076 18-181, looked up)
chain: MRILMVGLDGAGKTTVLYKLKLGEVITTIPTIGFNVETVQYKNISFTVWDVGGQDRIRSLWRHYYRNTEGVIFVVDSNDRSRIGEAREVMQRMLNEDELRNAAWLVFANKQDLPEAMSAAEITEKLGLHSIRNRPWFIQATCATSGEGLYEGLEWLSNSLKNST
For B1, the binding result was “binds”.
